In the supplement of paper PMC10126150:
± gives the standard deviation of the averaged measurements.

Test system: ATP
Experiment: switch fluorescence ratio, 500 uM ATP over buffer (Cy3 cluster intensity, sum of 5 cycles each) (fold (ratio)); higher = stronger signal-on switching upon ATP binding; sequences stand for … in TCGTCGGCAGCGTCAGATGTGTATAAGAGACAGTTTTTTTTTTTTTTTTTTTTTTTTT…TC
Conditions: aptamer strand: ATP DNA aptamer (quencher-CACCTGGGGGAGTATTGCGGAGGAAGG + anchor), 100 nM annealed; ATP concentration: 500 uM
Method in brief: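 Five buffer/ATP imaging cycles were run on Cy3-labelled switching-strand clusters on a modified Illumina MiSeq flow-cell, with NaOH stripping and re-annealing between cycles. In each cycle, clusters annealed to 100 nM quencher-labelled ATP aptamer were imaged in selection buffer, then after 15 min with 500 uM ATP at 22 °C. Per cluster, the fluorescence ratio is summed target-cycle over summed buffer-cycle Cy3 intensity, averaged per switch-domain sequence. Only clusters within 100-1000 RFU were kept.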
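Further: ATP exposure 15 min at 22 °C before imaging.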

Row | Sequence | switch fluorescence ratio
1 | CCGGGTATCC | 1.19 ± 0.18
2 | CCGGGTCTGG | 0.992 ± 0.013
3 | CCGGGTGCTA | 2.36 ± 1.4
4 | CCGGGTGGGT | 1.11 ± 0.13
5 | CCGGGTGGTA | 1.17 ± 0.015
6 | CCGGTAAGTC | 1.27 ± 0.026
7 | CCGGTAGGGT | 1.36 ± 0.61
8 | CCGGTATTTG | 1.021 ± 0.0077
9 | CCGGTCTATT | 1 ± 0.048
10 | CCGGTCTTGA | 1.01 ± 0.039
11 | CCGGTGTGTA | 1.03 ± 0.029
12 | CCGGTGTGTT | 1.03 ± 0.086
13 | CCGGTTAAGC | 1.2 ± 0.057
14 | CCGGTTAGGG | 0.991 ± 0.029
15 | CCGGTTCAGG | 1.05 ± 0.016
16 | CCGGTTGTGG | 1.01 ± 0.02
17 | CCGGTTGTTG | 1.027 ± 0.0079
18 | CCGTATGTTT | 1.11 ± 0.091
19 | CCGTCATCTG | 1.04 ± 0.029
20 | CCGTCATTGT | 1.11 ± 0.02
21 | CCGTCTACGC | 1.16 ± 0.048
22 | CCGTCTGTTG | 1.03 ± 0.029
23 | CCGTGAATAT | 2.21 ± 0.083
24 | CCGTGGAAAC | 1.14 ± 0.026
25 | CCGTGGTATA | 1.151 ± 0.0068
26 | CCGTGTATTT | 1.05 ± 0.052

Row | Sequence | switch fluorescence ratio
27 | CCGTGTCATT | 1.013 ± 0.0023
28 | CCGTGTGGCT | 1.027 ± 0.0022
29 | CCGTGTGGGT | 1.01 ± 0.018
30 | CCGTGTGTCA | 1.03 ± 0.029
31 | CCGTGTTTCT | 0.9916 ± 0.0033
32 | CCGTTCTCGC | 1.31 ± 0.048
33 | CCGTTGAGCT | 1.112 ± 0.01
34 | CCGTTGGCCT | 1.042 ± 0.0065
35 | CCGTTGTGCG | 1.02 ± 0.027
36 | CCGTTGTGGT | 1.05 ± 0.068
37 | CCGTTTAGAT | 1.01 ± 0.011
38 | CCGTTTTAGC | 1.12 ± 0.12
39 | CCGTTTTTGT | 0.9922 ± 0.006
40 | CCTACGGTGG | 1.04 ± 0.04
41 | CCTACTTGGC | 1.16 ± 0.05
42 | CCTAGGCTTT | 1.117 ± 0.0063
43 | CCTAGGTCAT | 1.12 ± 0.15
44 | CCTATGCAGT | 5.33 ± 0.3
45 | CCTATGGGGG | 1.49 ± 0.66
46 | CCTATGTGCT | 1.038 ± 0.0059
47 | CCTATTAGG | 1 ± 0.011
48 | CCTCAGGGGC | 2.39 ± 0.57
49 | CCTCATTTTT | 0.988 ± 0.0099
50 | CCTCCAGGGT | 2.5 ± 0.92
51 | CCTCGTAGGT | 1.07 ± 0.024
52 | CCTCTCCGTA | 1.32 ± 0.083

Row | Sequence | switch fluorescence ratio
53 | CCTCTGGGGG | 1.32 ± 0.19
54 | CCTGAGTTCG | 1.39 ± 0.21
55 | CCTGCGTCTG | 1.9 ± 0.065
56 | CCTGGAGTTA | 1.04 ± 0.1
57 | CCTGGCGTCG | 1.005 ± 0.0083
58 | CCTGGGGAGT | 1.04 ± 0.034
59 | CCTGGGGATC | 1.15 ± 0.098
60 | CCTGGGGCCA | 1.03 ± 0.038
61 | CCTGGGGGTG | 1.14 ± 0.074
62 | CCTGGGGGTT | 1.6 ± 0.79
63 | CCTGGTCGAC | 0.986 ± 0.015
64 | CCTGGTGAGG | 1.04 ± 0.072
65 | CCTGGTGCAT | 2.15 ± 0.056
66 | CCTGGTTGTG | 0.992 ± 0.029
67 | CCTGTGAGTT | 0.986 ± 0.012
68 | CCTGTTGGGA | 1.01 ± 0.037
69 | CCTGTTTCTA | 1.17 ± 0.23
70 | CCTGTTTGTA | 1.01 ± 0.066
71 | CCTTACGGCA | 1.53 ± 0.068
72 | CCTTACTTTT | 0.998 ± 0.036
73 | CCTTATTAGG | 1.002 ± 0.0075
74 | CCTTGCACG | 1.18 ± 0.22
75 | CCTTGGCCGA | 1.17 ± 0.0041
76 | CCTTGGGCTT | 1.04 ± 0.031
77 | CCTTGGTACA | 1.03 ± 0.015
78 | CCTTGGTGAG | 1.01 ± 0.014

Row | Sequence | switch fluorescence ratio
79 | CCTTTAGGTT | 1 ± 0.049
80 | CCTTTCATGC | 1.65 ± 0.16
81 | CCTTTGGCAG | 1.22 ± 0.06
82 | CCTTTGTGAT | 1.499 ± 0.0089
83 | CCTTTTATTC | 1.01 ± 0.03
84 | CCTTTTCAGG | 1.03 ± 0.023
85 | CCTTTTGCGC | 1.31 ± 0.012
86 | CCTTTTGGTG | 1.38 ± 0.44
87 | CCTTTTGTAC | 1.386 ± 0.011
88 | CCTTTTTCTT | 1.04 ± 0.029
89 | CCTTTTTGT | 0.993 ± 0.027
90 | CGAAAAAGAT | 1.04 ± 0.079
91 | CGAAAAGTTG | 1.01 ± 0.048
92 | CGAAAGCTTG | 1.05 ± 0.02
93 | CGAAAGTTTA | 1.008 ± 0.0021
94 | CGAAATCCTT | 1.05 ± 0.039
95 | CGAACGAAAA | 0.992 ± 0.04
96 | CGAACGGGGG | 1 ± 0.032
97 | CGAACTGGGT | 1.03 ± 0.028
98 | CGAACTGTGG | 0.9673 ± 0.009
99 | CGAACTTGGA | 0.9882 ± 0.0074
100 | CGAAGATTTT | 1.05 ± 0.022
101 | CGAAGGGACG | 1.05 ± 0.081
102 | CGAAGGGGGA | 0.995 ± 0.021
103 | CGAAGGTTTT | 1.02 ± 0.015
104 | CGAAGTACAT | 1.16 ± 0.0019

Row | Sequence | switch fluorescence ratio
105 | CGAAGTAGAG | 1.029 ± 0.0064
106 | CGAATAATCA | 0.982 ± 0.053
107 | CGAATAGCGG | 0.9757 ± 0.002
108 | CGAATATTAA | 0.994 ± 0.013
109 | CGAATATTTG | 0.996 ± 0.026
110 | CGAATCAATC | 2.51 ± 0.44
111 | CGAATGTTCG | 0.998 ± 0.035
112 | CGAATTAAAC | 0.99 ± 0.029
113 | CGAATTTTTG | 0.982 ± 0.018
114 | CGACAAAGCC | 1.28 ± 0.014
115 | CGACGAAACT | 1.15 ± 0.021
116 | CGACGAGGCT | 1.21 ± 0.024
117 | CGACGGGCAG | 1.01 ± 0.042
118 | CGACGTGGGA | 1.042 ± 0.0055
119 | CGACGTGTGG | 1.02 ± 0.03
120 | CGACTGTTTT | 1.02 ± 0.015
121 | CGACTTACAT | 1.24 ± 0.057
122 | CGAGAAAGAG | 0.983 ± 0.077
123 | CGAGAAGTTT | 1.005 ± 0.0081
124 | CGAGACCACA | 1.05 ± 0.043
125 | CGAGACGGGG | 0.959 ± 0.042
126 | CGAGAGCCAC | 1.13 ± 0.047
127 | CGAGATGTGG | 1.02 ± 0.011
128 | CGAGCATGTA | 1.168 ± 0.0052
129 | CGAGCCTTGT | 1.01 ± 0.04
130 | CGAGCGGGGG | 1.01 ± 0.047

Row | Sequence | switch fluorescence ratio
131 | CGAGCTGCAT | 1.08 ± 0.011
132 | CGAGGCCTGG | 1 ± 0.011
133 | CGAGGCTCCG | 1.05 ± 0.026
134 | CGAGGGAGTA | 0.993 ± 0.035
135 | CGAGGGGATT | 1.25 ± 0.54
136 | CGAGGGGTTC | 0.9908 ± 0.0044
137 | CGAGGGGTTG | 1 ± 0.04
138 | CGAGGGTAGT | 1.01 ± 0.025
139 | CGAGGGTCTC | 1.01 ± 0.029
140 | CGAGGTACTG | 1.01 ± 0.0034
141 | CGAGGTAGCT | 1 ± 0.021
142 | CGAGGTAGGG | 1.01 ± 0.073
143 | CGAGGTGGCT | 1.01 ± 0.028
144 | CGAGGTGGGA | 0.9972 ± 0.0025
145 | CGAGTACTGT | 0.994 ± 0.025
146 | CGAGTAGAGG | 1.02 ± 0.026
147 | CGAGTAGTCA | 0.994 ± 0.018
148 | CGAGTATGGG | 0.9859 ± 0.0011
149 | CGAGTATTAC | 1.09 ± 0.04
150 | CGAGTCCAGG | 6.48 ± 0.097
151 | CGAGTCTTTG | 1.03 ± 0.059
152 | CGAGTGGGTG | 0.996 ± 0.018
153 | CGAGTGTCAG | 0.976 ± 0.028
